Blank lines part the entries; values can stand above or below the binder they belong to.
Experiments:
[1] = molecular target: T1, human complement factor Bb (human, UniProt P00751 260-764); experiment: cell-based or functional assay
[2] = molecular target: T1, human complement factor Bb; experiment: SPR, purified protein
[3] = molecular target: T1, human complement factor Bb; experiment: cell-based or functional assay; remark: listed apart in the source
[4] = molecular target: T1, human complement factor Bb; experiment: cell-based or functional assay; remark: listed apart in the source
[5] = molecular target: T1, human complement factor Bb; experiment: cell-based or functional assay; remark: listed apart in the source
[6] = molecular target: T1, human complement factor Bb; experiment: BLI (Octet), biotinylated target on streptavidin sensor; mixture of the two scFabs from construct #9
Source text: (§1) Bio-layer interferometry (BLI) was used to assess the recombinant proteins' target engagement to and binding affinity for complement C1s enzyme (active C1s or “C1s” herein) and factor Bb (Bb) (Complement Technology, Tyler, TX, USA). C1s and Bb were biotinylated with EZ-Link™ Sulfo-NHS-LC-LC-Biotin (Thermo Fisher, Waltham, MA, USA) according to manufacturer instructions. Biotinylated C1s or Bb was loaded on Octet® Streptavidin (SA) Biosensors (Sartorius, Göttingen, Germany), followed by a concentration range of purified proteins. To assess dual target engagement, biotinylated active C1s or Bb was loaded onto sensors, followed by purified proteins (“first association phase”), followed by the non-captured complement target (Bb or active C1s, non-biotinylated; “second association phase”). The assays were performed at 30° C. using PBS with 0.1% Tween 20 as a diluent (FIG. 3).

[7] = molecular target: T1, human complement factor Bb; experiment: BLI (Octet), biotinylated target on streptavidin sensor; protein purified to >98%
Source text: as §1

[8] = molecular target: T1, human complement factor Bb; experiment: cell-based or functional assay; remark: listed apart in the source
[9] = molecular target: T1, human complement factor Bb; experiment: BLI (Octet), biotinylated target on streptavidin sensor
[10] = molecular target: T1, human complement factor Bb; experiment: BLI (Octet), biotinylated target on streptavidin sensor; partially purified mixture of the two scFabs from construct #9; mixture of the two scFabs from construct #9
Source text: as §1
(§2) The third expression construct, construct #9 (FIGS. 2B and 21), is composed of a bidirectional minCBA promoter driving expression of separate transcripts encoding human codon-optimized αBb scFab or αC1s scFab [αC1s scFab+αBb scFab], each followed by a bGH poly (A) signal.

[11] = molecular target: T1, human complement factor Bb; experiment: cell-based or functional assay; remark: listed apart in the source
cynomolgus Bb = molecular target: T2, cynomolgus Bb (cynomolgus, UniProt A0A2K5TZY3 260-763); experiment: method not given
T2 construct: Named only in the sentence that gives the KD; also called cynomolgus target
T2 sequence (A0A2K5TZY3 entry or part of it): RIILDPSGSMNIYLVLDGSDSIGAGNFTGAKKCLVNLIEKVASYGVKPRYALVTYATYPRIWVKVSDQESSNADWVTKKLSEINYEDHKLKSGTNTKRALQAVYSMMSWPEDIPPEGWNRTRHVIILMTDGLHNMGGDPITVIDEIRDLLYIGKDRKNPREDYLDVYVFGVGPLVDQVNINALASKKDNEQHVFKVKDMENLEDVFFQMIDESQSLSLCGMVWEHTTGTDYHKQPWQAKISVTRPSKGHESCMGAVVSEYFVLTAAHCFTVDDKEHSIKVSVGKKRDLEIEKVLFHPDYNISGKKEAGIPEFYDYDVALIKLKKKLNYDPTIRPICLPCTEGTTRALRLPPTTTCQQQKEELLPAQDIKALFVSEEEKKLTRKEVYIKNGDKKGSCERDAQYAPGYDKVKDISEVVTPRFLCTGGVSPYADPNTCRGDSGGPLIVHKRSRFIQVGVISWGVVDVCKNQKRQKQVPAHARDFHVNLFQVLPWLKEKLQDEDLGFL

[12] = molecular target: T3, human complement C1s enzyme (activated C1s) (human, UniProt P09871 16-437; P09871 438-688); experiment: BLI (Octet), biotinylated target on streptavidin sensor; partially purified mixture of the two scFabs from construct #9
T3 construct: Bought from Complement Technology; Disulfide-linked heterodimer; Biotinylated with EZ-Link Sulfo-NHS-LC-LC-Biotin when captured in BLI; also called active C1s; aC1s
T3 sequence 1: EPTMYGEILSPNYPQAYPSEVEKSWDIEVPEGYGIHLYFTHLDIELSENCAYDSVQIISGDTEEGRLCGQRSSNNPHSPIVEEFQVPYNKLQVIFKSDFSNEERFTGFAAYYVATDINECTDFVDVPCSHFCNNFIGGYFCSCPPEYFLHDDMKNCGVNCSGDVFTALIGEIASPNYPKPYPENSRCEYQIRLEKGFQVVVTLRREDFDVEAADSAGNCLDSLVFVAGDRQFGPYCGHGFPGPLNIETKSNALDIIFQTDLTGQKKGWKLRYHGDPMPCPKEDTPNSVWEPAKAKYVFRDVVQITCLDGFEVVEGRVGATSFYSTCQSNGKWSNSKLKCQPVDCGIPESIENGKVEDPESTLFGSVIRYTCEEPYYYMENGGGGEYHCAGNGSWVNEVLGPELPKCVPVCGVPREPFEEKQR
T3 sequence 2: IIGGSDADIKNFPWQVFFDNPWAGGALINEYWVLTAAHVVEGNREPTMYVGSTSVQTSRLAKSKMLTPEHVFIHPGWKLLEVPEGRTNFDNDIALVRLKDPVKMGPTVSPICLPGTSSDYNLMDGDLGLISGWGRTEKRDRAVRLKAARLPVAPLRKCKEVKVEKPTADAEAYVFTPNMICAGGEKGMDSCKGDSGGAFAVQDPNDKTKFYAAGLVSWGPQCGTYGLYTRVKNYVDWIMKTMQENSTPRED
Source text: as §1, §2

[13] = molecular target: T3, human complement C1s enzyme (activated …); experiment: cell-based or functional assay
[14] = molecular target: cynomolgus C1s (cynomolgus); experiment: method not given
[15] = molecular target: T3, human complement C1s enzyme (activated …); experiment: SPR, purified protein
[16] = molecular target: T3, human complement C1s enzyme (activated …); experiment: cell-based or functional assay; remark: listed apart in the source
[17] = molecular target: T3, human complement C1s enzyme (activated …); experiment: cell-based or functional assay; remark: listed apart in the source
[18] = molecular target: T3, human complement C1s enzyme (activated …); experiment: cell-based or functional assay; remark: listed apart in the source
[19] = molecular target: T3, human complement C1s enzyme (activated …); experiment: BLI (Octet), biotinylated target on streptavidin sensor; mixture of the two scFabs from construct #9
Source text: as §1

[20] = molecular target: T3, human complement C1s enzyme (activated …); experiment: BLI (Octet), biotinylated target on streptavidin sensor; protein purified to >98%
Source text: as §1

[21] = molecular target: T3, human complement C1s enzyme (activated …); experiment: cell-based or functional assay; remark: listed apart in the source
[22] = molecular target: T3, human complement C1s enzyme (activated …); experiment: BLI (Octet), biotinylated target on streptavidin sensor
[23] = molecular target: T3, human complement C1s enzyme (activated …); experiment: cell-based or functional assay; remark: listed apart in the source
[24] = molecular target: T3, human complement C1s enzyme (activated …); experiment: BLI (Octet), biotinylated target on streptavidin sensor; mixture of the two scFabs from construct #9; mixture of the two scFabs from construct #9
[25] = molecular target: T3, human complement C1s enzyme (activated …); experiment: method not given
[26] = molecular target: T3, human complement C1s enzyme (activated …); experiment: BLI (Octet), biotinylated target on streptavidin sensor; remark: listed apart in the source
[27] = molecular target: T1, human complement factor Bb; experiment: as above; remark: listed apart in the source
[28] = molecular target: T1, human complement factor Bb; experiment: SPR

T1 sequence (P00751 260-764): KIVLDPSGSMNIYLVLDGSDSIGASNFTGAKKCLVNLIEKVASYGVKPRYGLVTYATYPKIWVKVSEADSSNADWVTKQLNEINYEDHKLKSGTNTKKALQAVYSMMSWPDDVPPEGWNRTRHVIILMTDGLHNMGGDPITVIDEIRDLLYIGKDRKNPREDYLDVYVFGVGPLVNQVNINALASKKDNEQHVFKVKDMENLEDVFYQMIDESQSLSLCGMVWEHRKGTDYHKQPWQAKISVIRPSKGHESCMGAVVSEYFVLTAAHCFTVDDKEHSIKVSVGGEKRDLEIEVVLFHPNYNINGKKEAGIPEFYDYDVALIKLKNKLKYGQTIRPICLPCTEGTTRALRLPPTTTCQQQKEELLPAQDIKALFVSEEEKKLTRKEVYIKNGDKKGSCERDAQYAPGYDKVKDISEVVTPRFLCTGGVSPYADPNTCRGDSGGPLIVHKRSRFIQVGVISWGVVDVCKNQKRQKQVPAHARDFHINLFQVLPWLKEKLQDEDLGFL

CP IC50 (Wieslab) [13]: 6 nM | Kd [15]: 0.3 nM | Wieslab classical pathway IC50 [16]: 5.5 nM | IC50 CP (Wieslab) [21]: 5.4 nM | Kd [26]: 0.3 nM | Kd [22]: 0.3 nM | IC50 (nM), complement activation with CP and AP activated simultaneously in vitro [23]: 68.2 nM
B3: parental anti-C1s Fab (Fab, V domains shown)
VH: QVQLVQSGAEVKKPGASVKLSCTASGFNIKDDYIHWVKQAPGQGLEWIGRIDPADGHTKYAPKFQVKVTITADTSTSTAYLELSSLRSEDTAVYYCARYGYGREVFDYWGQGTTVTVSS
VL: DIVLTQSPDSLAVSLGERATISCKASQSVDYDGDSYMNWYQQKPGQPPKILIYDASNLESGIPARFSGSGSGTDFTLTISSLEPEDFAIYYCQQSNEDPWTFGGGTKVEIKR
notes: also called Purified anti-C1s Fab

Wieslab alternative pathway IC50 [3]: 190 nM | Kd [28]: 7.3 nM
B5: parental anti-Bb IgG4 antibody VH6/Vκ7-IgG4v2 (antibody, V domains shown)
VH: EVQLVESGGGLVKPGGSLRLSCAASGFTFSNYAMSWVRQAPGKRLEWVATISNRGSYTYYPDSVKGRFTISRDNAKNSLYLQMNSLRAEDTALYYCARERPMDYWGQGTLVTVSS
VL: DIQMTQSPSTLSASVGDRVTITCKASQDVGTAVAWYQQKPGKAPKLLIYWASTRHTGVPDRFSGSGSGTDFTLTISSLQAEDFAVYFCHQHSSNPLTFGQGTKLEIK
notes: IgG4 (IgG4v2), from U.S. Pat. No. 11,242,382 and WO 2021/216458; full chains of the mAb are not; also called anti-Bb mAb

The remaining lines, values behind:

B1: anti-Bb scFab (construct #4) (Fab)
chain: DIQMTQSPSTLSASVGDRVTITCKASQDVGTAVAWYQQKPGKAPKLLIYWASTRHTGVPDRFSGSGSGTDFTLTISSLQAEDFAVYFCHQHSSNPLTFGQGTKLEIKRTVAAPSVFIFPPSDEQLKSGTASVVCLLNNFYPREAKVQWKVDNALQSGNSQESVTEQDSKDSTYSLSSTLTLSKADYEKHKVYACEVTHQGLSSPVTKSFNRGECGGGGSGGGGSGGGGSGGGGSGGGGSGGGGSGGGGSEVQLVESGGGLVKPGGSLRLSCAASGFTFSNYAMSWVRQAPGKRLEWVATISNRGSYTYYPDSVKGRFTISRDNAKNSLYLQMNSLRAEDTALYYCARERPMDYWGQGTLVTVSSASTKGPSVFPLAPCSRSTSESTAALGCLVKDYFPEPVTVSWNSGALTSGVHTFPAVLQSSGLYSLSSVVTVPSSSLGTKTYTCNVDHKPSNTKVDKRV
notes: Single-chain Fab: LC-(G4S)7-HC (VH-CH1); there it stood in a mixture with the anti-C1s scFab; also called αBb scFab; Purified anti-Bb scFab
AP IC50 (Wieslab), mixture of scFabs from construct #9 [1]: 224 nM | Kd [2]: 3.7 nM | Wieslab alternative pathway IC50 [3]: 190 nM | Wieslab AP IC50 of #9-derived fragments, fold of purified anti-Bb Fab [4]: ~3 fold | IC50 AP Wieslab EIA [5]: 193 nM | Kd [6]: 0.8 nM | koff [6]: 0.0002 s⁻¹ | kon [6]: 260000 M⁻¹ s⁻¹ | Kd [7]: 0.7 nM | IC50 AP (Wieslab) [8]: 193 nM | IC50 AP (Wieslab), mixture of scFabs from construct #9 [8]: 224 nM | Kd [9]: 0.7 nM | koff [9]: 0.00049 s⁻¹ | kon [9]: 670000 M⁻¹ s⁻¹ | Kd [10]: 0.9 nM | IC50 (nM), complement activation with CP and AP activated simultaneously in vitro [11]: 633 nM | Kd (cynomolgus Bb): 14.8 nM

B2: anti-C1s scFab (construct #2) (Fab)
chain: DIVLTQSPDSLAVSLGERATISCKASQSVDYDGDSYMNWYQQKPGQPPKILIYDASNLESGIPARFSGSGSGTDFTLTISSLEPEDFAIYYCQQSNEDPWTFGGGTKVEIKRTVAAPSVFIFPPSDEQLKSGTASVVCLLNNFYPREAKVQWKVDNALQSGNSQESVTEQDSKDSTYSLSSTLTLSKADYEKHKVYACEVTHQGLSSPVTKSFNRGECGGGGSGGGGSGGGGSGGGGSGGGGSGGGGSGGGGSQVQLVQSGAEVKKPGASVKLSCTASGFNIKDDYIHWVKQAPGQGLEWIGRIDPADGHTKYAPKFQVKVTITADTSTSTAYLELSSLRSEDTAVYYCARYGYGREVFDYWGQGTTVTVSSASTKGPSVFPLAPCSRSTSESTAALGCLVKDYFPEPVTVSWNSGALTSGVHTFPAVLQSSGLYSLSSVVTVPSSSLGTKTYTCNVDHKPSNTKVDKRV
notes: Single-chain Fab: LC-(G4S)7-HC (VH-CH1); there it stood in a mixture with the anti-Bb scFab; also called αC1s scFab; Purified anti-C1s scFab
Kd [12]: 1.8 nM | CP IC50 (Wieslab), mixture of scFabs from construct #9 [13]: 157 nM | Kd [14]: 0.016 nM | Kd [15]: 0.3 nM | Wieslab classical pathway IC50 [16]: 6.7 nM | Wieslab CP IC50 of #9-derived fragments, fold of purified anti-C1s Fab [17]: ~25 fold | IC50 CP Wieslab EIA [18]: 7.2 nM | koff [19]: 0.00028 s⁻¹ | kon [19]: 150000 M⁻¹ s⁻¹ | Kd [20]: 0.3 nM | IC50 CP (Wieslab) [21]: 7.2 nM | IC50 CP (Wieslab), mixture of scFabs from construct #9 [21]: 157 nM | Kd [22]: 0.3 nM | IC50 (nM), complement activation with CP and AP activated simultaneously in vitro [23]: 97.3 nM | Kd [24]: 1.9 nM | Kd [25]: 0.34 nM

B4: parental anti-Bb Fab (Fab, V domains shown)
VH: B5 VH
VL: DIQMTQSPSTLSASVGDRVTITCKASQDVGTAVAWYQQKPGKAPKLLIYWASTRHTGVPDRFSGSGSGTDFTLTISSLQAEDFAVYFCHQHSSNPLTFGQGTKLEIKR
notes: also called Purified anti-Bb Fab
AP IC50 (Wieslab) [1]: 99 nM | Kd [2]: 2.7 nM | Wieslab alternative pathway IC50 [3]: 144 nM | IC50 AP (Wieslab) [8]: 144 nM | Kd [27]: 0.7 nM | Kd [9]: 0.73 nM | koff [9]: 0.00051 s⁻¹ | kon [9]: 700000 M⁻¹ s⁻¹ | IC50 (nM), complement activation with CP and AP activated simultaneously in vitro [11]: 463 nM

From patent US20240401082A1 (Sanofi, published 2024)
